Test results taken from patent US20240254220A1, “COMBINED THERAPY USING ANTI-CD300C ANTIBODY” (CentricsBio, Inc., priority 2021, published 2024).

What was measured:
CD300c antigen = molecular target: T1, CD300c antigen (Homo sapiens, UniProt Q08708); experiment: Binding ELISA of CL7 (Experimental Example 2.3); details: CL7 diluted from 10 μg/mL
T1 sequence (Q08708 21-224): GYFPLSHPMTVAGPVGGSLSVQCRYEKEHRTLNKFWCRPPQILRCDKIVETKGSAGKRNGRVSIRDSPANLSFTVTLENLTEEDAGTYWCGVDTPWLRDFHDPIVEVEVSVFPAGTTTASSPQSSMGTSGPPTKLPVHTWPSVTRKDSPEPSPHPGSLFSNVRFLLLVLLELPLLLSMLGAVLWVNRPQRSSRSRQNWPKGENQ
Procedure: CD300c antigen (250 ug/mL) was diluted to a concentration of 800 ng/mL in coating buffer (0.1 M sodium carbon ate, pH 9.0), placed into a 96-well microplate at 100 μL per well, and incubated at 4° C. overnight. The next day, the microplate was washed three times with 200 μL of PBST. Thereafter, 200 μL of a blocking buffer (5% skim milk) was added thereto, followed by blocking at room temperature for 1 hour. The anti-CD300c monoclonal antibody CL7 was diluted to 200 μg/mL in PBS, and the concentration thereof was checked by measurement using Nanodrop (product name: NanoDrop One/One, manufactured by Thermo Fisher Scientific). Subsequently, CL7 was diluted in quadruplicate with PBS starting from 10 μg/mL, and added at 100 μL each, followed by incubation at room temperature for 1 hour. After the incubation, the microplate was washed three times with […] of PBST. A secondary antibody (conjugated anti-Fc IgG) was diluted 1:10,000 in blocking buffer, and added at 100 μL, followed by incubation at room temperature for 1 hour, and then washed three times with 200 μL of PBST. […] Then, 50 μL of 1 N sulfuric acid was added to stop development, and measurement was performed at 450 nm using a microplate reader (product name: Varioskan LUX) to obtain binding affinity results.

[1] = test system: A549 (human lung cancer cell line); experiment: A549 cancer cell growth inhibition (CCK-8), CL7 and Imfinzi; assay type: cell-based; details: A549, 0% FBS, 10 μg/mL each, 5 days
Description: In order to identify cancer cell growth inhibitory effects by combined administration of the anti-CD300c monoclonal antibody CL7 and an immunotherapeutic agent, the cancer cell growth inhibitory effects were compared using A549 (human lung cancer cell line) and MDA-MB-231 (human breast cancer cell line). Specifically, the cells were dispensed into a 96-well plate at 2×10^4 cells (A549) or 3×10^4 cells (MDA-MB-231) under 0% fetal bovine serum (FBS) conditions, and at 6×10^3 cells (A549) or 1×10^4 cells (MDA-MB-231) under 0.1% fetal bovine serum conditions. Subsequently, the cells were treated with the anti-CD300c monoclonal antibody and Imfinzi at 10 μg/mL alone or in combination, followed by incubation for 5 days. For a control group, the cells were treated with the same amount of phosphate buffer solution (PBS). Then, the cells were treated with CCK-8 (DOJINDO), and the absorbance was measured at OD 450 nm. The results are shown in FIG. 33 (A549) and FIG. 34 (MDA-MB-231).

[2] = test system: colon cancer cell line (CT26) tumor; experiment: IFN-g ELISPOT of spleen in CT26 syngeneic mouse tumor model; assay type: in vivo, BALB/c mice; details: 25 mg/kg i.p., day 25
Procedure: In order to identify effects of the anti-CD300c monoclonal antibody CL7 on CD8+ T cells under in vivo conditions, syngeneic mouse tumor models were prepared as in Experimental Example 3.2 and administered the anti-CD300c monoclonal antibody at the same concentration. On day 25 after injection, the mice were sacrificed, and spleen were collected from each of six mice in the CL7 25 mg/kg administration group showing a highest antitumor effect compared with the control group. Subsequently, the results were identified by measuring IFN-g through ELISPOT assay. Specifically, the Mouse IFN-g ELISpot kit was purchased from R&D Systems (#EL485), and IFN-g was measured according to the protocol for the kit.

[3] = test system: CD300a antigen and seven B7 family protein antigens (PD-L1, ICOS Ligand, CD276, B7-H4, CD80, CD86, CD273); experiment: Binding specificity ELISA against B7 family proteins; details: antigens coated at 8 μg/mL
Procedure: In order to identify that the anti-CD300c monoclonal antibody CL7 specifically binds only to CD300c without binding to other B7 family proteins, binding ELISA was performed. More specifically, each of CD300c antigen, CD300a antigen, or seven B7 family protein antigens (PD-L1 [B7-H1] (Sino Biological), ICOS Ligand[B7-H2] (Sino Biological), CD276[B7-H3] (Sino Biological), B7-H4 (Sino Biological), CD80[B7-1] (Sino Biological), CD86[B7-2] (Sino Biological), CD273[PD-L2] (Sino Biological)) in a coating buffer (0.1 M sodium carbonate, pH 9.0) was coated on an ELISA plate at a concentration of 8 μg/mL per well, and then bound to the plate by incubation at 2° C. to 8° C. overnight. The unbound antigen was removed by washing with PBST three times, and then […] of blocking buffer (5% skim milk in PBST) was added to each well. Subsequently, blocking was performed at room temperature for 1 hour, followed by washing again with PBST. Thereafter, CL7 was diluted in quadruplicate with PBS, incubated with the antigen at room temperature for 1 hour for antigen binding 1 hour later, and washed three times with PBST. […] Then, 2 N sulfuric acid solution was added to terminate the development reaction, and the absorbance was measured at 450 nm to identify the antibody specifically binding to the CD300c antigen.

THP-1 = experiment: M1 macrophage marker ELISA in THP-1; assay type: cell-based, human; details: THP-1, 10 μg/mL, 48 hours, antibody alone
Procedure: In order to identify whether the induction of differentiation of monocytes into M1 macrophages increases when the cells are treated with the anti-CD300c monoclonal antibody CL7 produced in Example 1 and an immunotherapeutic agent, such as Imfinzi as an anti-PD-L1 antibody, Opdivo as an anti-PD-1 antibody, KEYTRUDA as an anti-PD-1 antibody, an anti-CD47 antibody (αCD47), and an anti-CTLA-4 antibody, alone in combination, THP-1 was dispensed into a 96-well plate at 1.5×10^4 cells/well and treated with the anti-CD300c monoclonal antibody and the immunotherapeutic agent, respectively, at 10 μg/mL alone or in combination, followed by incubation for 48 hours, and the production levels of tumor necrosis factor-α (TNF-α), IL-1b, and IL-8, which are differentiation markers of M1 macrophages, were measured using an ELISA kit (Human TNF-α Quantikine kit, R&D Systems).

B1: CL7: anti-CD300c monoclonal antibody, VH3VL1 phage library, VH SEQ ID 327, VL SEQ ID 328 (antibody, V domains shown)
VH: EVQLLESGGGLVQPGGSLRLSCAASGFTFSRYAMSWVRQAPGKGLEWVSAISGSGGSTYYADSVKGRFTISRDNSKNTLYLQMNSLRAEDTAVYYCARSSQGIFDIWGQGTLVTVSS
VL: QSVLTQPPSASGTPGQRVTISCSGNNIGTRRVHWYQQLPDTAPKLLIYSKNNRPSGVPDRFSGSKSGTSASLAISGLRSEDEADYYCAAWDDSLSGPVFGGGTKLTVL
modifications: CL7 Heavy Chain Variable Region; CL7 Light Chain Variable Region
B1 was tested, and the “binding to CD300c” value (CD300c antigen) was “bound to CD300c in a concentration-dependent manner”, the “cell growth inhibitory effect compared with control group” value [1] was 17% and the “expression of IFN-g (ELISPOT)” value [2] was “increased”. The “binding specificity versus other similar proteins” value [3] was “specifically recognized only CD300c without binding to other similar proteins”, the “production level of IL-8” value (THP-1) was “significantly increased” and the “production levels of all three differentiation markers (TNF-α, IL-1b, IL-8)” value (THP-1) was “increased”.
